Reference: paper PMC2795102 (Journal of biomolecular screening, 2009)

What was measured:
[1] = biological target: Wildtype, full-length human Gαi1 (human, UniProt P63096 1-354); experiment: SPR
Gαi1(R178M/A326S) = Gαi1(R178M/A326S) (human, UniProt P63096 1-354, R178M | A326S); experiment: SPR
Sequence of Gαi1(R178M/A326S) (P63096 whole entry R178M/A326S): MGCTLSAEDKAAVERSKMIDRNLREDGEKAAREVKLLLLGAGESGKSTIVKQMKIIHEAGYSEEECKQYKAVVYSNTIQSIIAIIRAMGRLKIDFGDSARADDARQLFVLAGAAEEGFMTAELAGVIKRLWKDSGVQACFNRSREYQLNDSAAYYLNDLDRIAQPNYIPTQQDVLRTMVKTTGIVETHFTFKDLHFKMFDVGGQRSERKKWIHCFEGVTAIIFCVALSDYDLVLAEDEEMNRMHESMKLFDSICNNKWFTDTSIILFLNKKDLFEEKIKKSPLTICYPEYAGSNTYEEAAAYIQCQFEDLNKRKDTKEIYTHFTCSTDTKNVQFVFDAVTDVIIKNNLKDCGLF

Sequence of Wildtype, full-length human Gαi1 (P63096 whole entry): as the sequence (P63096 whole entry R178M/A326S) above, with M178R, S326A counted along it

B1: RGS16 (natural protein, human, UniProt O15492 1-202, looked up)
chain: MCRTLAAFPTTCLERAKEFKTRLGIFLHKSELGCDTGSTGKFEWGSKHSKENRNFSEDVLGWRESFDLLLSSKNGVAAFHAFLKTEFSEENLEFWLACEEFKKIRSATKLASRAHQIFEEFICSEAPKEVNIDHETHELTRMNLQTATATCFDAAQGKTRTLMEKDSYPRFLKSPAYRDLAAQASAASATLSSCSLDEPSHT
Kd [1]: 124 nM | Kd (Gαi1(R178M/A326S)): 115 nM
